Measurements from the supplement of paper PMC12042874.
± gives the uncertainty stated by the source.

Assay: amyloid nucleation score (Sup35N fusion, yeast selection) (log enrichment); library NNK3; higher = more nucleation; inactive = no reads after selection
Method in brief: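 For the nucleation score, DiMSum gave the log enrichment of output over input reads, centred on the mode score of non-aggregating sequences. Psi-negative yeast expressing Sup35N fused to peptides of 20 random codons were induced with 100 μM copper sulfate for 24 hours and grown 7 days at 30°C on medium lacking adenine and uracil. Input and output plasmid inserts were Illumina-sequenced, and sequences with under 100 input reads were excluded.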

Row | Substance | amyloid nucleation score
1 | YCGYNR | inactive
2 | YCKSPVSANMHMNNGNTGSC | inactive
3 | YCLRSSTGSEVRQWDDDSFK | inactive
4 | YCMYMCFSVMAGGGIVTMLW | inactive
5 | YCSIGLLCTSCIASVGIWVI | inactive
6 | YCSVFRES | 0.014 ± 0.63
7 | YCTFDVCGFSSASSEGFNTA | 0.465 ± 0.32
8 | YCTGLIFPAFSNLEDSTLLF | inactive
9 | YCTRNTCEIVGCILCGGLLS | 2.45 ± 0.086
10 | YCVLLRCNFFRSL | inactive
11 | YCVQYVNDRQL | 1.85 ± 0.082
12 | YDDVVVI | inactive
13 | YDGQMVRVRLYPSWEQVYCV | -1.1 ± 1.4
14 | YDKQENVEGLFALF | inactive
15 | YDMVLRSHATVAYSHYGFDM | inactive
16 | YDRNLNMCLQEMHRNIR | inactive
17 | YDTAVYIIELGCNDNKSWVR | inactive
18 | YDWSVPAKSS | inactive
19 | YEYWYFCRDDNNFVYLIR | inactive
20 | YFFCCLR | 2.44 ± 0.059
21 | YFFFLRICWMDSSLVFGLLS | inactive
22 | YFFSDNRNFRVNPVSNR | inactive
23 | YFGFIVKISYTVLFGLGSKC | inactive
24 | YFINKMILIDPL | inactive
25 | YFMCREMALILEHLCEAGWC | inactive
26 | YFMVINR | 1.98 ± 0.071
27 | YFNLPISW | -0.316 ± 0.7

Row | Substance | amyloid nucleation score
28 | YFRGPF | inactive
29 | YFSFFQRVLWYRCAASFNLQ | -0.106 ± 0.63
30 | YFSKVIVDLKNSCIL | inactive
31 | YFSMIVVGCVNFKELPDNRV | 1.78 ± 0.086
32 | YFSQVGRDCMFR | inactive
33 | YFVFKIRKDVELLVYI | inactive
34 | YFYKNLSSFHFGKMRLK | inactive
35 | YFYLSICDVSMVGSEFIYSR | 0.373 ± 0.2
36 | YGCCVSGMYVALGLQ | 2.8 ± 0.068
37 | YGEEEVE | inactive
38 | YGETAMRRSLTSLYNHMSLN | inactive
39 | YGFNNWYKPSDLSRTPSESG | inactive
40 | YGGDWCARTPCLSRVNSVKP | inactive
41 | YGILLFGVSWWWAVSFFENF | inactive
42 | YGPKV | inactive
43 | YGRLLVGFLTITV | inactive
44 | YGSMMHWKSLCLSSIC | inactive
45 | YGSNSLPYKTGVYVKLSCN | inactive
46 | YGSYVWYSLLVREWLNSPGY | inactive
47 | YGTMFLENTYNPFPVGSHVF | inactive
48 | YGTSATKRTALFWYDMTKFG | inactive
49 | YHLSSMVTVWKDSVMLAT | inactive
50 | YHRTFWSFGSKVFLRVNWCR | inactive
51 | YHTYKDSRTGFFMGQHSCMS | inactive
52 | YIGIHLTSFRSTSSYYDRVL | inactive
53 | YIGTYLLMSYGDSRPRKEMR | 1.47 ± 0.088
54 | YIHIGAM | inactive

Row | Substance | amyloid nucleation score
55 | YIKRTIFTYYYRERMIADSY | inactive
56 | YILNITNLWSLCLCRLCRKD | 3.08 ± 0.078
57 | YINSFCTRKSYIY | inactive
58 | YIQSNCEFMHPVCIIIFACV | 1.16 ± 0.11
59 | YIRIDTGLLCVCGLSQEGVV | inactive
60 | YISSFRGDIVIY | inactive
61 | YISSPSIWLCISCEHRGTSA | 2.92 ± 0.07
62 | YIYDSLWW | inactive
63 | YIYVIGWGNVLCGI | 2.22 ± 0.079
64 | YKANFMGFSIYKRVGTRVWQ | 0.15 ± 0.75
65 | YKDIRCGWLMFGVANLQ | inactive
66 | YKFGVTPWLRFILSNVRKMM | inactive
67 | YKGFKRIGLEGQFVSSYLFY | inactive
68 | YKQHYRRSRHCIKHYVGGSE | inactive
69 | YKVKIPMVCAVISGKSTWVG | inactive
70 | YLDKCIVVCFRVRNSNSFWL | 2.42 ± 0.065
71 | YLDKRYVVGVFMLDSNLDLS | inactive
72 | YLDNVFNGPAFLYSGSRDR | 1.02 ± 0.18
73 | YLDRKVCSGNALRYLK | inactive
74 | YLFSELYMLNLSRFAK | inactive
75 | YLGRFNSKFMTSVLIMYYP | inactive
76 | YLICLVWKELLARAHIAELC | 0.28 ± 0.2
77 | YLIGRGVMVFNFPWLLHHTN | 1.58 ± 0.1
78 | YLIGYDT | 0.366 ± 0.65
79 | YLLCF | inactive
80 | YLLLDYGTRSFLYDRYRYIR | 0.067 ± 0.68
